Results on 1 substance are retold here after PMC11618073.

Assay [1] concerns the target canonical S. cerevisiae nucleosome (two H2A–H2B dimers) on Widom 601 DNA (S. cerevisiae) (UniProt P04911). In words: single-molecule fluorescence colocalisation; surface-immobilised 113N2.AF488 nucleosome; 5 nM SWR1(647N) with 1 mM ATP injected; 25 mM Tris-HCl pH 7.8, 100 mM KCl, 4% glycerol, 1 mM EDTA, 2 mM MgCl2, 0.2 mg/ml BSA; 22 °C; time to bind and bound lifetime from tMAVEN.

The target of assay [2] is heterotypic S. cerevisiae nucleosome (one Htz1–H2B dimer and one H2A–H2B dimer) (S. cerevisiae) (UniProt P04911). The assay can be described thus: FRET or BRET; single-molecule FRET (prism-TIRF); biotinylated nucleosome or hexasome with Cy3 on the 2-bp DNA overhang immobilised via neutravidin; 10 nM SWR1(647N) injected; 25 mM Tris-HCl pH 7.8, 100 mM KCl, 4% glycerol, 1 mM EDTA, 2 mM MgCl2, 0.2 mg/ml BSA; room temperature; 100-ms frames.

In assay [1], “SWR1(Atto647N–Arp6) (from UniProt Q05471 1-1514; Q12509 1-438; Q03433 1-280; Q03388 1-795; Q03940 1-463; Q12464 1-471; P38326 1-303) (complex)” registered a lifetime of the bound complex (stably bound species) of 19 min and a time to bind of 6.58 min. In assay [2], the dwell time on the Htz1–H2B face (single fast exponential decay) stood at 0.63 s.
